The source of these data is PMC4232355.

The target in the assay is recombinant integrin αvβ3 (UniProt P06756). The assay can be described thus: ELISA; integrin competitive binding assay: wells coated with 0.05 µg/well recombinant integrin αvβ3; 5 nM biotinylated-GRGDS with or without various peptides (20 nM) or serially diluted cyclic-(GRGDSP), 3 hr at room temperature, binding buffer with 1 mM MnCl2; bound biotinylated-GRGDS detected with streptavidin-HRP polymer.

SDESDTNSESANESGSRGDA [C-opened RGD]: the inhibitory activity of 20 nM peptide, as the equal concentration of cyclic-(GRGDSP) was found to be 5.27 nM and the inhibitory activity of 20 nM peptide, percent of that of 20 nM cyclic-(GRGDSP) turned out to be 26.5%.
For SRGDASYTSDESSDDDNDSDSH [N-opened RGD], the inhibitory activity of 20 nM peptide, as the equal concentration of cyclic-(GRGDSP) stood at 3.3 nM and the inhibitory activity of 20 nM peptide, percent of that of 20 nM cyclic-(GRGDSP) came out at 16.5%.
